Results reported in the supplement of paper PMC9170038.

Tested on: MS2 coat protein
Experiment: apparent KD of MS2 coat protein; designed switch direction (-1 OFF switch, 1 ON switch): -1; higher = weaker reporter binding
Outline: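 Each step of the titration lasted 0.8–1.5 h at the lowest concentration and 10–20 min at the highest. The protein, SNAP-549-labelled MS2 coat protein, went from 0.7 or 1.5 nM doubling to 3 µM over RNA switches transcribed on Illumina chips by stalled E. coli RNA polymerase. Normalised cluster fluorescence was curve-fitted, and the per-design median over clusters is given as apparent KD.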

[1] = Eterna round: R95, input ligand: microRNA oligo, concentration not stated
[2] = input ligand: microRNA oligo, concentration not stated
[3] = Eterna round: R95, input ligand: FMN 200 uM
[4] = Eterna round: R95, input ligand: none

Sequence	apparent KD of MS2 coat protein (input ligand: FMN 200 uM) [nM]	apparent KD of MS2 coat protein (input ligand: none) [nM]	apparent KD of MS2 coat protein [1] [nM]	apparent KD of MS2 coat protein [2] [nM]	apparent KD of MS2 coat protein [3] [nM]	apparent KD of MS2 coat protein [4] [nM]
UUCACAUGGACAUAAGAUCACAUGAGGAUCACCCAUGUGAAUAACAAGCUUUUUGUUCGUCUUAUGUCCAAUAAUAA [Stov1/14-B1] (Eterna round: R97, puzzle: Sensor, turn-off variant 1)	12.3	12.6	–	–	–	–
GUGUACGCAGGAUAUACAUGAGGAUCACCCAUGUGAAUAAGAUAGAAUAAGAUAAAGUGUAGAAGGGCGAGUGU [Excluse me!!! 5 - Jieux - Exclusion 3] (puzzle: Exclusion 3)	–	–	28.3	–	–	–
AUUUACAAGCUAAGAUCCUACAUGAGGAUCACCCAUGUGGUCCGGUGACGUGAGUCACCGGACUUAGCUCGUCUUGA [salish99_S_TOV1_R5_082] (Eterna round: R97, puzzle: Sensor, turn-off variant 1)	32.9	36.8	–	–	–	–
CUCAUGCCUGAGGAUAUGCUGUACAAAAGUACUGCAGAAGGCAGGACAUGAGGAUCACCCAUGUGGCGAAAGCC [Omei Ex G10] (Eterna round: R97, puzzle: Exclusion 6)	13.4	198	–	–	–	–
AGCCCUGCAGGAUAUGCCCGGGAUAACAUGAGGAUCACCCAUGUGACCGGUUGUUAGACUGCAGAAGGGCAUGGGA [salish99_ex5_r4_302] (Eterna round: R97, puzzle: Exclusion 5)	14.8	12.2	–	–	–	–
UACAUGAGGAUCACCCAUGUUUUGUCGUGUAUGGUAUUUAUCUAGGAUAUCAAUUUGGUUAUUUAUGAGAAGGAGAAUAUUAAU [JMF's solution 66] (Eterna round: R96, puzzle: Exclusion NG 3)	48.9	37.2	–	31.6	–	–
CGGUGUAGAGGAUAUACGUGGAUAUAAGAACAUGAUAAUUUACAUGAGGAUCACCCAUGUAGAAGGCUAUAGCG [JR_Ex2_Sub080] (Eterna round: R97, puzzle: Exclusion 2)	74.8	207	–	–	–	–
AGAAAGCAAGGAUAUACGAGGAGAAGGUGGAGAGUUAAAGGACAUGAGGAUCACCCAUGUAGAAGGUGCGAGAA [JR_Exclu2_Sub044] (puzzle: Exclusion 2)	–	–	67.1	–	122	72
AGCUGUGGCCGAGGAUAUCUGUCCCAUAAAACCGAAAUAUAAUCGGACAUGAGGAUCACCCAUGUAGAGAAGGCGGUCUCAGCA [Eli eng2 - 098] (Eterna round: R96, puzzle: Exclusion NG 2)	–	–	–	31.3	–	–
UAUAGGCGAGGAUAUACUAACAAACGGAUCGCCAAACAAGAACUUGAGGAUCACCCAAGUAGAAGGCGCAAUUG [Gezaonsoma] (Eterna round: R97, puzzle: Exclusion 2)	15.8	24.1	–	–	–	–
AAAAGAGUAGGAUAUCUGACGCGAAACAUGAGGAUCACCCAUGUAGGGCGGUCCUGCUUAAGAGAAGGGCUCAAAU [Sodirira] (puzzle: Exclusion 5)	–	–	88.9	–	–	–
GUGGAACAUGAGGAUCACCCAUGUGAGGAUAUGUGAGAAGGAUUUGAGAUGGAGAGGGACAGAAGGCACUAGGA [JR_Exclu1_Sub083] (puzzle: Exclusion 1)	–	–	39.4	–	36.3	55.8
AGCGUGGAGACAGGAUAUGAGAAUAGAUAGAACUCAGAAGGGUCACAUGAGGAUCACCCAUGUAAAGUCUUGAGGAUGAGUGAU [Prohibition 4 - Jieux - Exclusion NG 1] (Eterna round: R96, puzzle: Exclusion NG 1)	192	73.5	–	57.7	–	–
GGUACUCAAAGAGUACCAAUACGAACAUGAGGAUCACCCAUGUAGGAUAUGCUACUCAAAGAGUAGCAGAAGGAUAUGAUGUAU [Far Half Aptamer v17] (Eterna round: R96, puzzle: Exclusion NG 3)	–	–	–	27.6	–	–
GAGGUGUUAGGAUAUCGGAGAUGGAGAAGAACGGGAUGAGCCGAGAAGGAACAUGAGGAUCACCCAUGUAGGUG [JR_Exclu4_Sub031] (puzzle: Exclusion 4)	–	–	420	–	415	553
UUUUUAUUUUUUUAUUUUGACAUGAGGAUCACCCAUGUCACGAGCAGAUCUUCAUGCAAGCUUUUUGCUCGUCUUAU [Sensor v3 - Turn-off variant 1 - 40] (puzzle: Sensor v3, turn-off variant 1)	–	–	141	–	58.3	98.4
GGUAGAGUGGUAGGAUAUCCGUCUGUUUCAGUCGGAGAAGGACCACAGUCACUGGGUCCAAAUAUGGGUGACCAUGUAUCUACC [pwkr exNG1 F6.3] (Eterna round: R96, puzzle: Exclusion NG 1)	622	392	–	358	–	–
CUUGUACAUGAGGAUCACCCAUGUUAGGAUAUCUCGCCGUCGGCUUGCCGACGGUAUUAGAGAAGGGACUUGGG [JL Tixe mod 6] (puzzle: Exclusion 1)	–	–	50.8	–	–	–
UUUUUAUAUGAAGGAUAUACUUAACAUGAGGAUCACCCAUGUGGUGUUGUGAGUGAGUGAGUUUAGUAGAAGGUCAAUUAGUUU [JMF's solution 12] (Eterna round: R96, puzzle: Exclusion NG 2)	363	209	–	157	–	–
UACUUCCGAGGAUAUACAUGAGGAUCACCCAUGUGCUUCAGCAUUGAAAGAUGCAUGGGUAGAAGGCGGUAGUU [LRO-Excl3-18] (puzzle: Exclusion 3)	–	–	297	–	253	171
UUUUUACAUGAGGAUCACCCAUGUCAGGAUAUGCUUAUAUUUUAUUAUUUUAUUUUUUGCAGAAGGGACUAUUA [My solution] (Eterna round: R96, puzzle: Exclusion 1)	130	118	–	80.4	–	–
AGCUGUGGCCGAGGAUAUCACAUGAGGAUCACCCAUGUACAUGAUUAGGCCUGGUAACAGGCUCGUGAGAAGGCGGUCUCAGCA [Eli eng2 - 010] (Eterna round: R96, puzzle: Exclusion NG 2)	26.7	37.6	–	31.1	–	–
ACAUGAGGAUCACCCAUGUGGGUUCUCCAGCAUAAUAAGAGGUAGGAUAUGCAGUCGCCGAAGGAGCAGAAGGACCGCGUUUAU [Eternabot solution 50] (Eterna round: R96, puzzle: Exclusion NG 3)	67.1	43.5	–	29.7	–	–
AGCUGUGGCCGAGGAUAUCACGAACCAUGGAAAACCAUGGAACUCACACAUGAGGAUCACCCAUGUGAGAAGGCGGUCUCAGCA [Eli eng2 - 021] (Eterna round: R96, puzzle: Exclusion NG 2)	16.3	15.1	–	8.68	–	–
GCGCGCUAAGGAUAUACAUGAGGAUCACCCAUGUGCGCGCAAAAGCGCCGCGCGCGCGGUAGAAGGUAGGCAAA [Extraordinary-Exclusion 3] (Eterna round: R97, puzzle: Exclusion 3)	16	11.4	–	–	–	–
